# Assay results reported in publication PMC9836055.
# Tested on: CC(=O)Oc1ccc([N+](=O)[O-])cc1
# Experiment: purified protein
# Conditions: PBS, 37 °C, 0.25 mg/mL enzyme
substance,measurement,value
Lsa45 (Leptospiral surface adhesin of 45 kDa) (Leptospira interrogans serovar Copenhageni str. Fiocruz L1-130),Km,849.3 ± 15.30 µM
same,Vmax,219 µM/min
